Changes are numbered by the printed parent chain.
Key:
[1] = target: 人源TROP2, full length, on transfected cells (CHOK1-hTROP2 2B2; 293F-TROP2 6F6) (human) (UniProt P09758); experiment: FACS on CHOK1-TROP2 cells
[2] = target: T1, 人TROP2-his (CAT#10428-H08H-100, Sino biological) (human, UniProt P09758 27-274); experiment: SPR (Biacore), antibody captured by human Fab capture on CM5, human TROP2-his flowed
T1 construct: Bought; also called 人TROP2-his抗原; not shown: His tag
T1 sequence (looked up): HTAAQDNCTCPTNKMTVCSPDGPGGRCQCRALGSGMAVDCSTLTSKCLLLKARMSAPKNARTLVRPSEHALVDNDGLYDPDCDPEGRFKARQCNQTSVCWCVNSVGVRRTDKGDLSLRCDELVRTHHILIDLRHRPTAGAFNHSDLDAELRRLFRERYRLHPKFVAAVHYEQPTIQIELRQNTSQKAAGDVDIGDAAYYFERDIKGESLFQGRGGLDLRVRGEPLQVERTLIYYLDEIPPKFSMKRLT

[3] = target: T2, 食蟹猴TROP2, full length, on CHOK1 cells (CHOK1-cTROP2 2B2C2) (cynomolgus monkey, UniProt P09758 27-323 (human entry)); experiment: FACS on CHOK1-cTROP2 cells
T2 chain: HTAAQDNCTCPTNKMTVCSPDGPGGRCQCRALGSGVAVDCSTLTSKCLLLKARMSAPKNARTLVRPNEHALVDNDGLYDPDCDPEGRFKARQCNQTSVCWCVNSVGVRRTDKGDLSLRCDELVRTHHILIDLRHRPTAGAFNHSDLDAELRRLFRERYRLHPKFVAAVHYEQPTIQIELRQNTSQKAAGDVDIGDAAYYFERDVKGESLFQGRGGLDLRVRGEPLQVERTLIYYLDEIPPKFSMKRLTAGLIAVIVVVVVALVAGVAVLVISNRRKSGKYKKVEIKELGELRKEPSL

[4] = target: T3, 人源TROP2, full length, on transfected cells (CHOK1-hTROP2 2B2; 293F-TROP2 6F6) (human, UniProt P09758 27-323); experiment: FACS on CHOK1-hTROP2 cells
T3 construct: Full-length human TROP2 expressed from pIRES in CHOK1 or HEK293 cells; the host cell is named under assay; also called CHOk1-TROP2; CHOK-TROP2
T3 sequence: T2 chain with V36M, N67S, V204I, V266M, S272T

[5] = target: T4, 人源TROP2-hFc蛋白 (免疫原A; human TROP2 Thr88-Thr274 with human IgG Fc tag) (human, UniProt P09758 88-274); experiment: ELISA, hTROP2-hFc coated at 1.0 μg/mL
T4 construct: also called hTROP2-hFc; 人TROP2-hFc蛋白; not shown: human IgG Fc fragment (hFc) of the pCpC vector
T4 sequence: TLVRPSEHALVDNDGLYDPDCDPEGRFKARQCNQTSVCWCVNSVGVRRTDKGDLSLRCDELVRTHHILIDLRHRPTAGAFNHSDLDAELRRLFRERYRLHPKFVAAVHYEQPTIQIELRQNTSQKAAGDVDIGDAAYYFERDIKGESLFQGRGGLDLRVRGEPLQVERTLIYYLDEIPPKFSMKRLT

[6] = target: T3, 人源TROP2, full length, on transfected …; experiment: FACS on CHOK1-TROP2 cells
[7] = target: T3, 人源TROP2, full length, on transfected …; experiment: FACS on CHOK1-TROP2 cells (reference antibody)

B1: 嵌合抗体11E8-3 (heavy chain CDR2 DG→EG) (antibody, human IgG1, V domains shown)
VH: QVQLQQSGAELVRPGSSVKISCKASGVAFSTYWMNWVRQRPGQGLEWIGQIYPGEGDTNSNGKFKGKATLTADKSSSTAYMQFSSLTSEDSAVYFCATRIPDHYGSDWGYFDVWGAGTTV
VL: DIVLTQSPASLAVSLGQRATISCRASKSVSTSGYSYMHWYQQKPGQPPKLLIYLASNLESGVPARFSGSGSGTDFTLNIHPVEEEDAATYYCQHSRELPPTFGGGTKLEIK
decrease of maximal MFI against wild-type chimeric 11E8 [1]: 53%

B2: 嵌合抗体11E8-2 (heavy chain CDR2 DG→SG) (antibody, human IgG1, V domains shown)
VH: B1 VH with E55S
VL: B1 VL
decrease of maximal MFI against wild-type chimeric 11E8 [1]: 23%

B3: 嵌合抗体11E8(DA,NA) (antibody, V domains shown)
VH: B1 VH with E55D, G56A, G62A
VL: B1 VL
Kd [2]: 10.3 nM
koff [2]: 0.00107 s⁻¹
kon [2]: 105000 M⁻¹ s⁻¹

B4: TROP2抗体 11E8E6D11 (antibody, V domains shown)
VH: B1 VH with E55D
VL: B1 VL
notes: Mouse hybridoma antibody
binding result [3]: binds
binding result [4]: binds
binding result [5]: binds

B5: 嵌合抗体11E8-1 (heavy chain CDR2 NG→NA) (antibody, human IgG1, V domains shown)
VH: B1 VH with E55D, G62A
VL: B1 VL
notes: Human IgG1/kappa chimera; also called 突变抗体嵌合抗体11E8-1
binding result [6]: binds

B6: 嵌合抗体11E8-4 (heavy chain CDR2 DG→DA) (antibody, human IgG1, V domains shown)
VH: B1 VH with E55D, G56A
VL: B1 VL
notes: Human IgG1/kappa chimera; also called 突变体嵌合抗体11E8-4
binding result [6]: binds

B7: 嵌合抗体11E8 (野生型) (antibody, V domains shown)
VH: B1 VH with E55D
VL: B1 VL
notes: also called 野生型抗体嵌合抗体11E8
binding result [7]: binds

B8: hRS7 (antibody, V domains shown)
VH: QVQLQQSGSELKKPGASVKVSCKASGYTFTNYGMNWVKQAPGQGLKWMGWINTYTGEPTYTDDFKGRFAFSLDTSVSTAYLQISSLKADDTAVYFCARGGFGSSYWYFDVWGQGSLVTVSS
VL: DIQLTQSPSSLSASVGDRVSITCKASQDVSIAVAWYQQKPGKAPKLLIYSASYRYTGVPDRFSGSGSGTDFTLTISSLQPEDFAVYYCQQHYITPLTFGAGTKVEIKR
Kd [2]: 1.21 nM
koff [2]: 0.000271 s⁻¹
kon [2]: 225000 M⁻¹ s⁻¹

B9: hTINA1-H1L1 (antibody, V domains shown)
VH: QVQLVQSGAEVKKPGASVKVSCKASGYTFTTAGMQWVRQAPGQGLEWMGWINTHSGVPKYAEDFKGRVTISADTSTSTAYLQLSSLKSEDTAVYYCARSGFGSSYWYFDVWGQGTLVTVSS
VL: B8 VL with L4M, S20T, I31T, D60S, A100Q, V104L
Kd [2]: 20.7 nM
koff [2]: 0.00293 s⁻¹
kon [2]: 141000 M⁻¹ s⁻¹

From patent CN112390885A (KAIHUI SCIENCE & TECH DEVELOPMENT SHANGHAI CO LTD, dated 2021)
